Results taken from paper PMC12115719.

Biological target: Syngnathus scovelli chapparvovirus (SsChPV) VP, capsid protein (Syngnathus scovelli chapparvovirus)
Test: cryo-EM structure

Substance: Syngnathus scovelli chapparvovirus (SsChPV) VP, capsid protein (natural protein)
- stoichiometry N: 60
